Assay results as given in patent US20250282885A1 (VST BIO, published 2025).
Blank lines part the entries; values can stand above or below the binder they belong to.

Columns and labels:
human Sdc2 [1] = target: T1, human Sdc2 (human, UniProt P34741 19-144, limits assumed); assay: Octet tandem binning; saturating Ab m6 19838-20H19-AA (marked non-binding ligand)
T1 construct: Antigen of the Octet tandem binning, loaded on biosensors at 100 nM; also called huSdc2; hSdc2
Method: (§1) These studies were performed in a tandem binning assay format with human Sdc2, used as the antigen (concentration of 100 nM). Antigen loaded biosensors were dipped in a saturating solution of antibody (25 μg/ml) for 240 seconds followed by a competing antibody at 5 μg/ml for 180 seconds. […] Since saturation is not possible to achieve saturation with these clones, they are removed in as ligands, but retained in the analyte orientation in the analysis. A table summarizing the results of epitope binning of the 18 antibodies against huSdc2 is illustrated in FIG. 30. Data is normalized, where the raw binding signal from Competing Ab for a given Saturating Ab is divided by binding in the absence a […] (“buffer”). The threshold determining the matrix color is adjustable and dependent upon Ag-Ab binding. […] Table rows are based on similar looking binding profiles. Note that the coloration/cutoff is subjective, yellow color added to represent injections with ambiguous or very weak sandwiching signals. FIG. 31 illustrates a clustergram of the epitope binning studies, which was generated from the normalized binning data by importation into the statistical computing program R (The R Project for Statistical Computing: at r-project.org) and generation of a clustergram with the pvclust package.

human Sdc2 [2] = target: T1, human Sdc2; assay: Octet tandem binning; saturating Ab m3 19844-R3-P1-C02 (row boxed, self-self >0.09)
Method: as §1

human Sdc2 [3] = target: T1, human Sdc2; assay: Octet tandem binning; saturating Ab f11 19838-20-H19-A
Method: as §1

human Sdc2 [4] = target: T1, human Sdc2; assay: Octet tandem binning; saturating Ab f4 19844-R3-P3-C11
Method: as §1

human Sdc2 [5] = target: T1, human Sdc2; assay: Octet tandem binning; saturating Ab m5 19844-R4M-P3-A12 (row boxed, self-self >0.09)
Method: as §1

human Sdc2 [6] = target: T1, human Sdc2; assay: Octet tandem binning; saturating Ab f12 19838-6-N03-A
Method: as §1

human Sdc2 [7] = target: T1, human Sdc2; assay: Octet tandem binning; saturating Ab f3 19838-6N03-A
Method: as §1

human Sdc2 [8] = target: T1, human Sdc2; assay: Octet BLI, heading box over the sensorgram
Method: (§2) In order to characterize the binding affinity and in vivo/in vitro functional ability of the twelve clones generated by the previous studies and disclosed in Table 1, a series of assays were performed on each clone. These assays measured the affinity of each antibody clone for human, pig, and mouse Sdc2 using an Octet® binding assay system. Additionally, the functional ability of each clone to inhibit VEGFA-driven permeability (see Santiago, et al. (2021) J Am Heart Assoc. 10(18):e020521) was assessed in two therapeutic settings: a “prevention” study in which three concentrations of antibody (5 μg/ml, 10 μg/ml, 15 μg/ml, 20 μg/ml, and/or 40 μg/ml depending on the study) were pre-incubated for an hour before administration of 100 ng/ml of VEGFA, and a “treatment” study in which 3 hours of pre-treatment with 100 ng/ml VEGFA were followed by treatment with antibody at 20 μg/ml or 40 μg/ml. Results are shown for 8-G17 in FIG. 8 and FIG. 9, 20-H19-AB in FIG. 10 and FIG. 11 (FIG. 12 for monkey ECs), R3-P3-C11 in FIG. 13 and FIG. 14, R4M-P3-E06 in FIG. 15 and FIG. 16, R3-P3-E09 in FIG. 17 and FIG. 18, R3-P1-C02 in FIG. 19 and FIG. 20, R3-P3-A12 in FIG. 21 and FIG. 22, R4M-P3-A12 in FIG. 23 and FIG. 24, and R4M-P1-A10 in FIG. 25 and FIG. 26.

pig Sdc2 [9] = target: T2, pig Sdc2 (pig, UniProt F1S0L5 19-145); assay: Octet BLI, heading box over the sensorgram
T2 construct: also called pSdc2
Method: as §2

human Sdc2 [10] = target: T1, human Sdc2; assay: Octet tandem binning; saturating Ab m8 19844-R4M-P1-B01 (marked non-binding ligand)
Method: as §1

human Sdc2 [11] = target: T1, human Sdc2; assay: Octet tandem binning; saturating Ab f7 19844-R3-P3-A12
Method: as §1

human Sdc2 [12] = target: T1, human Sdc2; assay: Octet tandem binning; saturating Ab m1 19838-20H19-AB
Method: as §1

pig Sdc2 [13] = target: T2, pig Sdc2; assay: Octet BLI, HIS1K sensor loaded with pigSdc2, antibody as sample; Full R2 0.997
human Sdc2 [14] = target: T1, human Sdc2; assay: Octet tandem binning; Buffer in place of a saturating Ab
Method: as §1

human Sdc2 [15] = target: T1, human Sdc2; assay: Octet tandem binning; saturating Ab f5 19844-R4M-P3-E06
Method: as §1

human Sdc2 [16] = target: T1, human Sdc2; assay: Octet tandem binning; saturating Ab f6 19844-R3-P3-E09
Method: as §1

human Sdc2 [17] = target: T1, human Sdc2; assay: Octet tandem binning; saturating Ab m4 19844-R4M-P1-A10
Method: as §1

human Sdc2 [18] = target: T1, human Sdc2; assay: Octet tandem binning; saturating Ab f10 19838-10-I12-A
Method: as §1

human Sdc2 [19] = target: T1, human Sdc2; assay: Octet tandem binning; saturating Ab m7 19844-R3-P1-E07
Method: as §1

[20] = target: human Sdc2 on Human Umbilical Vein Endothelial Cells (HUVEC) (human, UniProt P34741 19-201); assay: cell-based or functional assay
human Sdc2 on Human Umbilical Vein Endothelial Cells (HUVEC), sequence (P34741 19-201 limits assumed): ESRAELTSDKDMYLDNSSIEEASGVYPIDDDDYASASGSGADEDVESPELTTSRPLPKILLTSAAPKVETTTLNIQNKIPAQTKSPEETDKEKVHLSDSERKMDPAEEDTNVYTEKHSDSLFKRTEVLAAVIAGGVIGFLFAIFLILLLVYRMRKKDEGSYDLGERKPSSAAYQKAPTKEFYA

human Sdc2 [21] = target: T1, human Sdc2; assay: Octet tandem binning; saturating Ab f8 19844-R4M-P2-C02
Method: as §1

human Sdc2 [22] = target: T1, human Sdc2; assay: Kd (human Sdc2), summary table of the mAbs
human Sdc2 [23] = target: T1, human Sdc2; assay: Octet tandem binning; saturating Ab f9 19838-6-E17-A
Method: as §1

human Sdc2 [24] = target: T1, human Sdc2; assay: Octet BLI, HIS1K sensor loaded with huSdc2, antibody as sample; Full R2 0.9968
human Sdc2 [25] = target: T1, human Sdc2; assay: Octet BLI, HIS1K sensor loaded with huSdc2, antibody as sample; Full R2 0.998
pig Sdc2 [26] = target: T2, pig Sdc2; assay: Octet BLI, HIS1K sensor loaded with pigSdc2, antibody as sample; Full R2 0.9988
Method: as §2

human Sdc2 [27] = target: T1, human Sdc2; assay: Octet tandem binning; saturating Ab m2 19838-8G17-A
Method: as §1

human Sdc2 [28] = target: T1, human Sdc2; assay: Octet BLI, heading box over the sensorgram; remark: listed apart in the source
pig Sdc2 [29] = target: T2, pig Sdc2; assay: Octet BLI, HIS1K sensor loaded with pigSdc2, antibody as sample; Full R2 0.9988; heading box reads Pig Sdc2 (Kd~ low femtomolar)
Method: as §2

T1 sequence (P34741 19-144 limits assumed): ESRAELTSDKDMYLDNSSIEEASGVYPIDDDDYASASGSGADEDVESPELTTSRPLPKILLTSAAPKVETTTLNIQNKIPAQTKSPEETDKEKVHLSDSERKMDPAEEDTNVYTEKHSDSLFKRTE

raw competing-Ab binding signal (human Sdc2 [1]): 0.891
raw competing-Ab binding signal (human Sdc2 [2]): 0.784
raw competing-Ab binding signal (human Sdc2 [3]): 0.241
raw competing-Ab binding signal (human Sdc2 [4]): 0.776
raw competing-Ab binding signal (human Sdc2 [5]): 0.858
raw competing-Ab binding signal (human Sdc2 [6]): 0.0566
raw competing-Ab binding signal (human Sdc2 [7]): 0.0574
Kd (human Sdc2 [8]): ~0.46 nM
Kd (pig Sdc2 [9]): ~0.45 nM
raw competing-Ab binding signal (human Sdc2 [10]): 0.827
raw competing-Ab binding signal (human Sdc2 [11]): 0.636
raw competing-Ab binding signal (human Sdc2 [12]): 0.16
Kd (pig Sdc2 [13]): 0.455 nM
koff (pig Sdc2 [13]): 0.000195 s⁻¹
kon (pig Sdc2 [13]): 428000 M⁻¹ s⁻¹
raw competing-Ab binding signal (human Sdc2 [14]): 0.83
raw competing-Ab binding signal (human Sdc2 [15]): 0.954
raw competing-Ab binding signal (human Sdc2 [16]): 0.761
raw competing-Ab binding signal (human Sdc2 [17]): 0.805
raw competing-Ab binding signal (human Sdc2 [18]): 0.113
raw competing-Ab binding signal (human Sdc2 [19]): 0.871
% Inhibition of VEGFA-induced permeability at 24hrs (20ug/ml) [20]: 100%
raw competing-Ab binding signal (human Sdc2 [21]): 0.777
Kd (human Sdc2 [22]): 0.46 nM
raw competing-Ab binding signal (human Sdc2 [23]): 0.79
Kd (human Sdc2 [24]): 0.466 nM
koff (human Sdc2 [24]): 0.000235 s⁻¹
kon (human Sdc2 [24]): 505000 M⁻¹ s⁻¹
B1: 8-G17-A (antibody, V domains shown)
VH: EVQLVESGGGLVKPGGSLKLSCEASGITFSNYVMSWVRQTPEKRLEWVATISDGGSYTYYPDNLKGRFTISRDNAKNNLYLQMSHLKSEDTAMYYCVRDRYDYDGRVYAMDYWGQGTSVTVSS
VL: DVVMTQTPLSLPVSLGDQASISCRSSQSLVHSNGNTYLHWYLQKPGQSPKLLIYKVSNRFSGVPDRFSGSGSGTDFTLKITRVEAEDLGVYFCSQSTHVPWTFGGGTKLEIKR
notes: PentaMice hybridoma clone, made recombinantly in CHO cells

Kd (human Sdc2 [25]): 0.369 nM
koff (human Sdc2 [25]): 3.18e-05 s⁻¹
kon (human Sdc2 [25]): 86200 M⁻¹ s⁻¹
raw competing-Ab binding signal (human Sdc2 [1]): 0.192
koff (pig Sdc2 [26]): < 1e-07 s⁻¹
kon (pig Sdc2 [26]): 70700 M⁻¹ s⁻¹
raw competing-Ab binding signal (human Sdc2 [2]): 0.0781
raw competing-Ab binding signal (human Sdc2 [3]): 0.0503
raw competing-Ab binding signal (human Sdc2 [4]): -0.0618
raw competing-Ab binding signal (human Sdc2 [5]): 0.173
raw competing-Ab binding signal (human Sdc2 [6]): 0.0082
raw competing-Ab binding signal (human Sdc2 [7]): -0.0355
raw competing-Ab binding signal (human Sdc2 [27]): -0.0786
raw competing-Ab binding signal (human Sdc2 [10]): 0.161
raw competing-Ab binding signal (human Sdc2 [11]): -0.102
Kd (human Sdc2 [28]): ~0.37 nM
raw competing-Ab binding signal (human Sdc2 [14]): 0.197
raw competing-Ab binding signal (human Sdc2 [15]): 0.158
raw competing-Ab binding signal (human Sdc2 [16]): -0.0179
raw competing-Ab binding signal (human Sdc2 [17]): 0.0759
raw competing-Ab binding signal (human Sdc2 [18]): 0.0503
raw competing-Ab binding signal (human Sdc2 [19]): 0.214
% Inhibition of VEGFA-induced permeability at 24hrs (20ug/ml) [20]: 90%
raw competing-Ab binding signal (human Sdc2 [21]): 0.0763
Kd (human Sdc2 [22]): 0.37 nM
raw competing-Ab binding signal (human Sdc2 [23]): 0.171
Kd (pig Sdc2 [29]): < 0.001 nM
B2: 20-H19-AB (antibody, mouse IgG1, kappa, V domains shown)
VH: EVQLVESGGGLVQPKGSLKLSCAASGFTFNIYAMHWVRQAPGKGLEWIARIGSKSSYYATYYADSVKDRFTISRDDSQSMLYLQTNNLKTEDTAMYYCVSGKGDWGQGTTLTVSS
VL: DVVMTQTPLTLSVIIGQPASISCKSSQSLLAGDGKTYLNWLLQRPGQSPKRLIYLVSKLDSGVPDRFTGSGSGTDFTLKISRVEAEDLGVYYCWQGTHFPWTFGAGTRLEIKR
notes: PentaMice hybridoma clone, made recombinantly in CHO cells; also called 20-H1-AB
